Source: US20250179187A1, “ANTI PD-L2 ANTIBODY” (REJUVERON SENESCENCE THERAPEUTICS AG, priority 2022, published 2025)

Tests used:
recombinant hPD-L2 = target: T1, recombinant hPD-L2 (Homo sapiens, UniProt Q9BQ51); experiment: ELISA with recombinant hPD-L2; assay type: binding; details: compared to a panel of commercially available anti-PD-L2 antibodies
T1 sequence (Q9BQ51 20-273): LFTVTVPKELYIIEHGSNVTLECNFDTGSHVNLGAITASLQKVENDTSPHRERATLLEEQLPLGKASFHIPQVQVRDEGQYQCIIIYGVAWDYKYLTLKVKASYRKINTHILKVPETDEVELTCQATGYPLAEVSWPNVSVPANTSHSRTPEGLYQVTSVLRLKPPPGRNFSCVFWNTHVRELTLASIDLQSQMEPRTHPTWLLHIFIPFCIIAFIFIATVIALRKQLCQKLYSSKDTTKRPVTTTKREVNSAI

PyMT spontaneous tumors = experiment: Spontaneous mouse PyMT breast tumor model with tumor immunostaining; assay type: in vivo
Description: Hemizygous transgenic PyMT mice were allowed to develop tumors to an average size of around 200 cubic millimeters, usually around 9 weeks, at which time treatment was initiated, with N=3-5 per treatment group. Doxorubicin (Aurovitas) was administered intraperitoneally once per week at 4 mg/kg and antibodies were administered every three days at a dose of 10 mg/kg during four weeks or 3 mg/kg where noted. Vehicle-treated animals received only vehicle solvent for doxorubicin as a no-treatment control. Tumors were measured with a standard caliper once per week. At the end of the study, tumors were resected and further analyzed by immunohistochemistry.
For the depleting study, the same treatment regimen described above was carried out but in combination with CD4 or CD8-depleting antibodies (BioXCell), administered on day −1, day 0 and weekly thereafter at a dose of 200 micrograms per animal.
For double SA-beta-galactosidase/PD-L2 staining, following resection, tumors were fixed in 2% paraformaldehyde and 0.2% glutaldehyde in PBS for 2 hours at room temperature. Samples were washed in PBS for 15 minutes then stained by standard procedures for SA-beta-galactosidase activity overnight. Following this, tumors were washed in PBS for 15 minutes, dehydrated in 70% ethanol and embedded in paraffin, sectioned, and stained for PDL2 with an anti-PDL2 antibody (Cell Signaling, D6L5A cat #49189) by standard immunohistochemistry techniques. To quantify the number of cells double positive for SA-beta-galactosidase and PDL2, 3 random fields from 2 mammary glands from each animal in each treatment group was analyzed with Image J software. Staining for CD3, CD4 and CD8 was also carried out by standard immunohistochemistry techniques on paraffin-embedded material and quantified according to pixel density using Image J software.

B1: VH0/VK0-mIgG1: parental murine anti-PD-L2 antibody on mIgG1 backbone; SEQ ID NO: 21/SEQ ID NO: 22 (antibody, V domains shown)
VH: QVQLQQSGAELVRPGTSVKVSCKASGYAFSNYFIEWVKQRPGQGLEWIGLNIPGSGGSNYAEKFKGKATLTADKSSSTAYMQLSSLTSEDSAVYFCARRRLPPDWYFDVWGTGTTVTVSS
VL: DVVMTQTPLSLPVSLGDQASISCRSSQSLVHSDGNTYLHWYLQKPGQSPKLLIYKVSNRFSGVPDRFSGSGSGTDFTLKISRVEAEDLGVYFCSQSTHVPWTFGGGTKLEIK
B1 was tested, and the “binding activity against recombinant hPD-L2” value (recombinant hPD-L2) was “superior binding activity”, the final tumor volume (PyMT spontaneous tumors; 3 mg/kg antibody with doxorubicin over four weeks, compared to doxorubicin alone or TY-25 and doxorubicin) was “greater reduction in final tumor volume” and the tumor growth (PyMT spontaneous tumors; combination with doxorubicin vs doxorubicin and mIgG1 control) was “inhibited tumor growth more”. For the same molecule, the “relative numbers of CD3+, CD8+ and CD4+ cells in PyMT spontaneous tumors” value (PyMT spontaneous tumors; combination with doxorubicin, compared to vehicle or doxorubicin-only treated mice (p<0.05)) was “increased relative numbers”, the “inhibition of tumor progression under depleting antibodies against CD4+ cells” value (PyMT spontaneous tumors; doxorubicin and antibody plus CD4-depleting antibodies) was “only slightly relieved this inhibition” and the “inhibition of tumor progression under depleting antibodies against CD8+ cells” value (PyMT spontaneous tumors; doxorubicin and antibody plus CD8-depleting antibodies) was “relieve the inhibition”. The “cells double-positive for PD-L2 and SA-βGal in PyMT tumors” value (PyMT spontaneous tumors; immunohistochemistry, antibody co-treated with doxorubicin vs Vehicle or Doxorubicin+mIgG1 (p<0.05)) was “significantly lower”.
